Experiment: label from the status in PepcDB records

Row | Sequence | protein production
1 | MSQEYTEDKDVTLTKLSSGRRLLEALLILIALFAVWLMAALLSFNPSDPSWSQTAWHEPIHNLGGAPGAWLADTLFFIFGVMAYTIPVIIVGGCWFAWRHQSTDDYIDYFAVSLRLIGVLALILTSCGLAAINADDIWYFASGGVIGSLLSTTLQPLLHSSGGTIMLLCIWAAGLTLFTGWSWVSIAEKLGGWLLNILTFASNRTRRDDTWVDDEEYDDEYDEETDGVQRESRRARILRGALARRKRLAEKFSNPRGRQTDAALFSGKRMDDDEDIQYSARGVAADPDDVLFSGNRATQPEYDEYDPLLNGHSVTEPVAAAAAATAVTQTWAASADPIMQTPPMPGAEPVVAQPTVEWQPVPGPQTGEPVIAPAPEGYQPHPQYAQPQEAQSAPWQQPVPVASAPQYAATPATAAEYDSLAPQETQPQWQAPDAEQHWQPEPTHQPEPIAAEPSHMPPPVIEQPVTTEPEPGIEETRPARPPLYYFEEVEEKRAREREQLAAWYQPIPEPVKENVPVKPTVSVAPSIPPVEAVAAAASLDAGIKSGALAAGAAAAAPAFSLATGGAPRPQVKEGIGPQLPRPNRVRVPTRRELASYGIKLPSQRIAEEKAREAERNQYETGVQLTDEEIDAMHQDELARQFAQSQQHRYGETYQHDTQQAEDDDTAAEAELARQFAASQQQRYSGEQPAGAQPFSLDDLDFSPMKVLVDEGPHEPLFTPGVMPESTPVQQPVAPQPQPQYQQSQQPVAPQSQYQQPQQPVAPQPQPQYQQSQQPVAPQSQYQQPQQPVAPQPQYQQPQQPVAPQPQYQQPQQPTAPQPQYQQPVAPQPQYQQPQQPVAPQPQYQQPQQPTAPQDSLIHPLLMRNGDSRPLQRPTTPLPSLDLLTPPPSEVEPVDTFALEQMARLVEARLADFRIKADVVNYSPGPVITRFELNLAPGVKAARISNLSRDLARSLSTVAVRVVEVIPGKPYVGLELPNKKRQTVYLREVLDNAKFRENPSPLTVVLGKDIAGDPVVADLAKMPHLLVAGTTGSGKSVGVNAMILSMLYKAQPEDVRFIMIDPKMLELSVYEGIPHLLTEVVTDMKDAANALRWSVNEMERRYKLMSALGVRNLAGYNEKIAEAARMGRPIPDPYWKPGDSMDVQHPVLEKLPYIVVLVDEFADLMMTVGKKVEELIARLAQKARAAGIHLVLATQRPSVDVITGLIKANIPTRIAFTVSSKIDSRTILDQGGAESLLGMGDMLYSGPNSTMPVRVHGAFVRDQEVHAVVQDWKARGRPQYVDGITSDSESEGGGGGFDGGEELDALFDQAVNFVTQKRKASISGVQRQFRIGYNRAARIIEQMEAQGIVSAQGHNGNREVLAPPPFE | failed
2 | MSQKGEAEGIARIRSAALFYIVAILITLVAVFAVFIPLIVSISSISSNLSNPNASSASAAAGGILSAVIGVIVVAVIVSIVILVFIILSFLRFRDGFSILQAIGRDVGIGKTGTTLILVGAILLIIPFLDIIGIILIFVGQILLGIGIYRIGEIYNNSLTKIGGILVAIPLIDITAFIGMIMTYVGVGQIQREFGMRPPLPPSSQIPSQQTGSGVLRGNGTADLNIYLQTQEQVVSAQILGTNYLTGLIVPNMLQPGFNNLTVNFNVPLNLMPNSIYVIRLNLASGRTLDVNVTFQP | failed
3 | MSQLPAWPRITRESTAMYHLRVPQTEEELERYYQFRWEMLRKPLHQPKESERDGWDALAHHQIVVDEEGNLVAVGRLYINADNEASIRFMAVHPSVQDKGLGTLMAMTLESVARQEGVKRVTCSAREDAVEFFAKLGFVNQGEITTPTTTPIRHFLMIKPVASLDDILHRGDWCGQLQQAWYEHIPLSEKMGVRIQQYTGQKFITTMPETGNQNPHHTVFAGSLFSLATLTGWGLIWLMLRERHLGGTIILADAHIRYSKPISGKPNAVADLGSLSGDLDRLARGKKARVQLQVELLGGETAGAIFEGIYIVLPAKPFGPYEEGGNEEE | failed
4 | MSQLTFWFGCALVALIAEFVSGTFYLLMVALALACGGFAAWLGAPEPWQWLIASVSGAVGLLAIHRRRRSLMPPPPPQDDPDWGQQVEIRALTTPGHARIHYRGAEWDALLMDSRLDAGSTGYISGREGNLFKISSQQPQ | failed
5 | MSQMSPGQARVVDPILSTHARGYRQSTLIGKKLFPVAPVAQYGGKILTFGKEAFRLYNTKRAPGANTKRIDFGYEGDPYSIVPSALEAKVPRELMRDASQVPGIDLGARSVNTVLRIMALAHEHECAQIALDPAKYNADHKVKLVGSARWTSPDSDPTKDVETAKEAIADSIGMEPNRLMLSRKALSACKYHPKLIERVKYTRAESITIDMLKALWEVEEIVVGTARVATGANDSFGDVWGPDVWLGYVSDNPDPSVEEPSFGYTYQIEGHPLVEVPYWDNNAKSWIYGVSDDNTPALSGMLAGYLIEDAGLPAALEHHHHHH | not failed
6 | MSQPLNVAVVGATGSVGEALVGLLDERDFPLHRLHLLASAESAGQRMGFAESSLRVGDVDSFDFSSVGLAFFAAAAEVSRAHAERARAAGCSVIDLSGALEPSVAPPVMVSVNAERLASQAAPFLLSSPCAVAAELCEVLAPLLATLDCRQLNLTACLSVSSLGREGVKELARQTAELLNARPLEPRLFDRQIAFNLLAQVGAVDAEGHSAIERRIFAEVQALLGERIGPLNVTCIQAPVFFGDSLSVTLQCAEPVDLAAVTRVLDATKGIEWVGEGDYPTVVGDALGQDETYVGRVRAGQADPCQVNLWIVSDNVRKGAALNAVLLGELLIKHYL | not failed
7 | MSQPRNRWIVQLILALAVLAFVGVSVVPIIGALNDNTSPSNQNSASNQGDSLASNQQSKLADEVRGYELVLQREPENQTALKGLLQARLQLLALKQGNVQSVIEPLEKLAKLNPNQSEYGVLLAQAKQQIGDKEGAATAYRSILDTKPGDLKALQGMVVLLLDQQRPEAAVGLLQDTLTNAAQANTIQPGSVDVVAVQVLLGNVHAAQKRYPQAISAFDQAIQKDTKDFRPVLAKAMLLKQQGKATEAKPLFDSALALAPAQYKDEINKAATVSPAPAPPAPPAPTPESTPKQ | failed
8 | MSQQQKQYDIHWLTGQFFDSSKESRYRDSIKARVRFESRLALPLVSVVVAMFGITDYNLLGLTREFYWLLTMRIAVVSSCLVLAFAIGRWGGYSRNAWLHSLPLWILATGIILIVPLRPESISTQITAVVVAIMAFYLLIPNLLTVAALASLYLTVGFLSAAAVYAGIPSENVLRVSLLLIMANIVGYCALLRIEFLQRKQFALLQDERDQNRDLLKEIKHRKSLEAQLRMVAERDALTGLDSRSHFMKRAEALLQRAQLEKTPFCLFMIDVDHFKRINDTWGHTRGDLILTKIAEVCEQSLRPTDVIGRFGGEEFVVGLPHTSPSEAQTIAERLKENVEALPLTAELSELCLSVTIGIAAAHGEEDDLDVLITRADNMLYEGKREGRNRVVMFGEGMDS | failed
9 | MSQRVSPTLIGLFVVGALALGVVGVGAFGSGQFFEQRTTFISYFDESVNGLDVGAPVKFKGVPIGEVTDINLRVDLENETFQVPVQYAINLDPVTDTTGARLNLDDPTLLRDQIEDGLRAQLQLESIVTGKLYVELTYISDPDSAVYAQGPPSRLSIPTELSPLAKLGEGASGLVTNLRQFDVTQINENLVTFLVNANDKLEALDAEAINRSALSTIESVRKVVESKEVRTALQDMPKATERLRATIKDAQALIQRLDRGVEPTADELEKTSRQLRATLKRMRRTMDEVDQTLSPNSGIGYQMNEALSNLSEATEALRVLVQSLERNPSMFLRGREEPPPSNQQ | failed
10 | MSQTDELTGTANRRFVFAKLALQVEQVSKGLEAPFCLCTLDIDFFKQINDRFGHKCGDAVLRDFVGIAHSVIRRVDCFGRIGGEEFMLILPRSSIAEGREIVERLLQKVRLSRPLSEFPDFSYSCSAGMTVFRMMENADDVFMRADQALYAAKEKGRDRLLAVTLEHHHHHH | failed
11 | MSQTTVVNGVNVDQLMATIEQIKAKPEIAQFKFRATNQWMGGTHNQATIKDFYGACAEDDTRKPMVFDLDEPPVLLGENRGANPVEYLLVALSGCLTTSLVAHAAARGIALRGVKSRYEGDIDLRGFLGLSEEVPVGYREIRVFFSIDADLTDGQKEELIRMAQKYSPVYNTVAKPVPVAVLLDRG | not failed
12 | MSQWITEWIPQVMNQLGYGGISLLMFLENLFPPIPSELIMPLAGFAVAQGKLELFPAIVAGIIGTILGAYPWYYIGKWVSEERLEQLADRYGKWIGLDAKDIHKSNVWFGRYGHQSVFFGRLVPGIRTIVSLPAGVNAMGLISFTLYSLGGISLWVTFLASAGYKLGDHYELVEQYLGPVSKIVLVSIVAILVLLIVRKQLRRRA | failed

From a protein production outcome set (Wang et al. 2014)
